In the assay the target is sEGFR (soluble extracellular region of EGFR, wild type) (Homo sapiens, UniProt P00533). Nature of the assay: SPR. A general note: Surface plasmon resonance follows binding to a sensor surface in real time, without labels.

B1: necitumumab Fab (Fab11F8) (Fab, V domains shown)
VH: QVQLQESGPGLVKPSQTLSLTCTVSGGSISSGDYYWSWIRQPPGKGLEWIGYIYYSGSTDYNPSLKSRVTMSVDTSKNQFSLKVNSVTAADTAVYYCARVSIFGVGTFDYWGQGTLVTVSS
VL: EIVMTQSPATLSLSPGERATLSCRASQSVSSYLAWYQQKPGQAPRLLIYDASNRATGIPARFSGSGSGTDFTLTISSLEPEDFAVYYCHQYGSTPLTFGGGTKAEIK
B1: the affinity, expressed as Kd, was 6.1 nM.

The term Kd denotes a measure of binding affinity in units of concentration. Read a high Kd as a looser complex.
